The record followed here is paper PMC8591604 (Journal of Medicinal Chemistry, 2021).

The experiment concerns the target T1, N-SH2 domain of SHP2 (residues 2–111) (human, UniProt Q06124 2-111).
T1 construct: SHP2 (PTPN11), human, N-terminal SH2 domain, residues 2-111; also called wild-type N-SH2; source: E. coli (DE3) Rosetta2, purified (Ni-NTA)
T1 sequence (looked up): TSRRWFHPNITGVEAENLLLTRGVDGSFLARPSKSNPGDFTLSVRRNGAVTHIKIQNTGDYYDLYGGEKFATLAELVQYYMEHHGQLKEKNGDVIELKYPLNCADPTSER
The experiment can be described thus: fluorescence polarisation; fluorescence anisotropy, displacement: 1.0 nM CF-P9 with 40 nM N-SH2 titrated with unlabelled peptide; fluorescence buffer. The note with it: both partners purified. For orientation: Polarisation of emitted light reports the rotation of a fluorescent probe.

[ ]: non-standard residue; d: D form. pY = N[C@@H](Cc1ccc(OP(=O)(O)O)cc1)C(=O)O

B1: P8, unlabeled IRS-1 pY1172 peptide, residues −2 to +5 (peptide)
peptide: Ac-LN[pY]IDLDL-NH2
SMILES: CC[C@H](C)[C@H](NC(=O)[C@H](Cc1ccc(OP(=O)(O)O)cc1)NC(=O)[C@H](CC(N)=O)NC(=O)[C@H](CC(C)C)NC(C)=O)C(=O)N[C@@H](CC(=O)O)C(=O)N[C@@H](CC(C)C)C(=O)N[C@@H](CC(=O)O)C(=O)N[C@@H](CC(C)C)C(N)=O
notes: IRS-1, residues −2 to +5 around pY1172 (rat numbering; P9 without residue −3); source: synthetic peptide
For the molecule B1, the binding result is recorded as “binds”.
